# Measured values from US20030129688A1 (published 2003).
# Ends that are not written are not given here.
# B1: HRG-β1 EGF variant E2 displayed on phage (ligand, human, not shown: large carriers)
# chain: SHLVKCAEKEKTFCVNGGECFMVKDYGYLMCKCPNEFTGDRCQNYVMASGGGSGGGSGGGS
# notes: monovalent phage display
# B2: HRG73 combination variant displayed on phage (ligand, human, not shown: large carriers)
# chain: SHLVKCGEEREGFCVNGGECYRVKTYGYLMCKCPNEFTGDRCQHYVIASGGGSGGGSGGGS
# notes: monovalent phage display; also called B3+D4+E2+I2
# B3: HRG-β1 EGF variant E8 displayed on phage (ligand, not shown: large carriers; small tags and cut ends)
# chain: SHLVKCAEKEKTFCVNGGECFMVKDTKYRGCKCPNEFTGDRCQNYVMAS-{(GGGS)3-M13 pIII C‑terminal fragment from residue 323}
# modifications: ends and bridges not checked
# notes: monovalent phage display; library E carries the 202-204 deletion
# B4: HRG37 combination variant displayed on phage (ligand, not shown: large carriers; small tags and cut ends)
# chain: WELVPCGWDREGFCVNGGECFMVKDLSNPSRYLCKCPNEFTGDRCQNYVIAS-{(GGGS)3-M13 pIII C‑terminal fragment from residue 323}
# modifications: ends and bridges not checked
# notes: monovalent phage display, pHRG8-g3 background
# B5: HRG-β1 EGF variant G1 displayed on phage (ligand, not shown: large carriers; small tags and cut ends)
# chain: SHLVKCAEKEKTFCVNGGECFMVKDLSNPSRYLCRCSLEFTGDRCQNYVMAS-{(GGGS)3-M13 pIII C‑terminal fragment from residue 323}
# modifications: ends and bridges not checked
# notes: as for B4
# B6: HRG-β1 EGF variant A3 displayed on phage (ligand, human, not shown: large carriers)
# chain: WELVPCAEKEKTFCVNGGECFMVKDLSNPSRYLCKCPNEFTGDRCQNYVMASGGGSGGGSGGGS
# notes: as for B4
# B7: HRG-β1 EGF variant B3 displayed on phage (ligand, human, not shown: large carriers)
# chain: SHLVKCGEEREGFCVNGGECFMVKDLSNPSRYLCKCPNEFTGDRCQNYVMASGGGSGGGSGGGS
# notes: as for B4
# B8: HRG-β1 EGF variant I2 displayed on phage (ligand, human, not shown: large carriers)
# chain: SHLVKCAEKEKTFCVNGGECFMVKDLSNPSRYLCKCPNEFTGDRCQHYVIASGGGSGGGSGGGS
# notes: as for B4
# B9: HRG90 (HRG-β1 EGF Met226Ile) displayed on phage (ligand, human, not shown: large carriers)
# chain: SHLVKCAEKEKTFCVNGGECFMVKDLSNPSRYLCKCPNEFTGDRCQNYVIASGGGSGGGSGGGS
# notes: monovalent phage display
# B10: HRG-β1 EGF variant D4 displayed on phage (ligand, human, not shown: large carriers)
# chain: SHLVKCAEKEKTFCVNGGECYRVKTLSNPSRYLCKCPNEFTGDRCQNYVMASGGGSGGGSGGGS
# notes: as for B4
# B11: HRG-β1 EGF variant I1 displayed on phage (ligand, human, not shown: large carriers)
# chain: SHLVKCAEKEKTFCVNGGECFMVKDLSNPSRYLCKCPNEFTGDRCQWYVIASGGGSGGGSGGGS
# notes: as for B4
# Assays:
# [1] = target: T1, ErbB-4 receptor-Ig fusion (human, UniProt Q15303 26-651; Q15303 26-640); assay: 125I-HRG-β1 177-244 displacement, ErbB-4-Ig on plate
# [2] = target: T2, ErbB-3 receptor-Ig fusion (human, UniProt P21860 20-643; P21860 20-636); assay: 125I-HRG-β1 177-244 displacement, ErbB-3-Ig on plate
# [3] = target: T2, ErbB-3 receptor-Ig fusion; assay: phage ELISA, competition with soluble ErbB-3-Ig; against wild-type HRG-β1 177-244 on phage
# [4] = target: T1, ErbB-4 receptor-Ig fusion; assay: phage ELISA, competition with soluble ErbB-4-Ig; against wild-type HRG-β1 177-244 on phage
# [5] = target: T2, ErbB-3 receptor-Ig fusion; assay: phage ELISA, competition with soluble ErbB-3-Ig; against HRG8
# Protocol: Microtiter plates (Nunc Maxisorp™ 96-well plates, Inter Med, Denmark) for phage ELISA were prepared as follows. The wells were precoated overnight with 0.5 μg of rabbit anti-human IgG (Fc gamma fragment-specific) antibodies (Jackson Immunoresearch, West Grove, Pa.) in 100 μL 50 mM NaCO₃ (pH 9.6). The wells were blocked for 30 minutes (min) with 200 μL PBS containing 0.1% bovine serum albumin (BSA) and rinsed with wash buffer (PBS containing 0.05% Tween 20™). The wells were then coated with 0.1 μg ErbB-2/3-Ig in binding buffer (PBS, 0.1% BSA, 0.05% Tween 20™) for 1 h, and washed again.
# Following incubation for 2 h at room temperature, plates were washed extensively and treated with a 1:900 dilution of anti-M13 horseradish peroxidase conjugate (Pharmacia, Piscataway, N.J.) for 20 min. The amount of phage binding was determined by assaying horseradish peroxidase activity using o-phenylenediamine dihydrochloride) substrate solution (Sigma Chemical Company, St. Louis, Mo.).
# [6] = target: T1, ErbB-4 receptor-Ig fusion; assay: phage ELISA, competition with soluble ErbB-4-Ig; against HRG8
# T1 sequence (Q15303 other isoform, or with tags, fused parts or gaps): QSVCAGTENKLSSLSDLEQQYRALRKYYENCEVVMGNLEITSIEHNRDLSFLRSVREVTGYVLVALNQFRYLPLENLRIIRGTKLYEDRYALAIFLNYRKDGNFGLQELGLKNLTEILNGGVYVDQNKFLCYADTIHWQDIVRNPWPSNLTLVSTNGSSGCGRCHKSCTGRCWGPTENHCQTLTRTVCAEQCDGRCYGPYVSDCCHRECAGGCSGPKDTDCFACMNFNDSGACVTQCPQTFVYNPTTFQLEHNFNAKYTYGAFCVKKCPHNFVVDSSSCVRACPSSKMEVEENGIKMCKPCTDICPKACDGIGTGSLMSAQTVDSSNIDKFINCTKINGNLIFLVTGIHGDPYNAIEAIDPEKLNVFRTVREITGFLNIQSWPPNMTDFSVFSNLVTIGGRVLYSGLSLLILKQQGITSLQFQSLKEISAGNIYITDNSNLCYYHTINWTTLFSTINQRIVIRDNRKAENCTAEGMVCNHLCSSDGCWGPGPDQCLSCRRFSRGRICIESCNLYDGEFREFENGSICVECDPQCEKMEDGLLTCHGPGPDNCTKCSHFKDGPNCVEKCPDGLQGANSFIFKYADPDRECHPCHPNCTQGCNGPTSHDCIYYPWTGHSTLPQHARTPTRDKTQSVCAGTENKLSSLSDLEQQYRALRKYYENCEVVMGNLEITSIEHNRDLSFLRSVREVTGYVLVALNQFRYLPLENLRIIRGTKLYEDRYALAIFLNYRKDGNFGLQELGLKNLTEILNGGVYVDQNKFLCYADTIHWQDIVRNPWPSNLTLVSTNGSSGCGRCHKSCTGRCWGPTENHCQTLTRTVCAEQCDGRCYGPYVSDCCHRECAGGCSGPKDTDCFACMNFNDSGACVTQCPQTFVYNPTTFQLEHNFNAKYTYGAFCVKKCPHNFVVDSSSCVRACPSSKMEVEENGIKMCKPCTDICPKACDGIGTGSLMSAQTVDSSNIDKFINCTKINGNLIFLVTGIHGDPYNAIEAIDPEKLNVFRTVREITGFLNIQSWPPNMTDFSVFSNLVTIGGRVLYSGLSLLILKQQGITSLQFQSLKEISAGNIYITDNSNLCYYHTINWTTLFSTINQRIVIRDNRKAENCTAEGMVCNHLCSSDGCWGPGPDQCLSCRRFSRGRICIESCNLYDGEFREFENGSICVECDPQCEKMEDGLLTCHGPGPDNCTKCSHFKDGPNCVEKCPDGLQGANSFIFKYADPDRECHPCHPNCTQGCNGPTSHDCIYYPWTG
# T2 sequence (P21860 other isoform, or with tags, fused parts or gaps): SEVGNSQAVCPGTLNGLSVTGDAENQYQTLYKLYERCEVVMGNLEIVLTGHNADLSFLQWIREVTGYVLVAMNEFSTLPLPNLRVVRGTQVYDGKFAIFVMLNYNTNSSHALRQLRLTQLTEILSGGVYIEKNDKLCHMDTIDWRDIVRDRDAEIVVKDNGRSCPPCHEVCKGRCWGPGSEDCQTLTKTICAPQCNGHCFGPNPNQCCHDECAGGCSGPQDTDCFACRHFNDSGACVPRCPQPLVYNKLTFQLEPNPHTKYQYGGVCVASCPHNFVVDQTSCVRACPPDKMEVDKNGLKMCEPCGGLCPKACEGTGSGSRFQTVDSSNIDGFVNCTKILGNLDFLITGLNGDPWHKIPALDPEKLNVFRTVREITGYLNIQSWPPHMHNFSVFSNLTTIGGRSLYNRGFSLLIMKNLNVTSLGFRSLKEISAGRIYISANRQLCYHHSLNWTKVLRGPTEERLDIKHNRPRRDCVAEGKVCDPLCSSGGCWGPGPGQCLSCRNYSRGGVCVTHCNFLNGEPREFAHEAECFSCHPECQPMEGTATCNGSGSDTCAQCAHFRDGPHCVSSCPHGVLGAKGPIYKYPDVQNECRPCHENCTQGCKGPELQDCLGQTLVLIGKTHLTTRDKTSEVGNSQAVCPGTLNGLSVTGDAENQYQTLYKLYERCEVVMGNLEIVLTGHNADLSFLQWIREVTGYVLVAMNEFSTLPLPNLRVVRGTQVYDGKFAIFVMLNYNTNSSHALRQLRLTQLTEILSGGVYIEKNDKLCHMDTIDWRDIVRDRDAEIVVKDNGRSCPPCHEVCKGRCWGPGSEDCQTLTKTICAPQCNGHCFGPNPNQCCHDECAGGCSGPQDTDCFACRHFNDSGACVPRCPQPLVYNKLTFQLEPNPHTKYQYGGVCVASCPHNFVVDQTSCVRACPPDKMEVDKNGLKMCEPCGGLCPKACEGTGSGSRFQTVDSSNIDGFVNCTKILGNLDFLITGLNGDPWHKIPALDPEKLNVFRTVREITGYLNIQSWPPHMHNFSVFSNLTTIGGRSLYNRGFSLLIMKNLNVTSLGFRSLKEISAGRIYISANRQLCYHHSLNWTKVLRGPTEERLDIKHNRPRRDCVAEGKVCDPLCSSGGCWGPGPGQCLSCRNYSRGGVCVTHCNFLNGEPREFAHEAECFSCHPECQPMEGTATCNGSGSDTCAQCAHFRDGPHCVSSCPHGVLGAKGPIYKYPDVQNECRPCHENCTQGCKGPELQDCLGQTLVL
Molecule,EC50 [1] [nM],EC50 [2] [nM],other results
Trx-HRG-β1 146-244 K211A fusion (from UniProt Q02297 146-244) (ligand),124,248,
Trx-HRG-β1 146-244 G194A fusion (from UniProt Q02297 146-244) (ligand),275,1210,
"HRG-β1 177-244 H178W with 228-231 replaced by Met, displayed on phage (Example 4 clone) (from UniProt Q02297 177-227; Q02297 232-244) (ligand)",,,EC50 Mut/WT [3]: 1.2; EC50 Mut/WT [4]: 1.7
Trx-HRG-β1 146-244 F229A fusion (from UniProt Q02297 146-244) (ligand),89.9,177,
Trx-HRG-β1 146-244 V199A fusion (from UniProt Q02297 146-244) (ligand),246,,
Trx-HRG-β1 146-244 L179A fusion (from UniProt Q02297 146-244) (ligand),51.7,394,
Trx-HRG-β1 146-244 E195A fusion (from UniProt Q02297 146-244) (ligand),13.2,42,
HRG-β1 177-244 H178E displayed on phage (Example 4 clone) (from UniProt Q02297 177-244) (ligand),,,EC50 Mut/WT [3]: 9.5; EC50 Mut/WT [4]: 1.7
Trx-HRG-β1 146-244 N192A fusion (from UniProt Q02297 146-244) (ligand),696,1640,
Trx-HRG-β1 146-244 F189A fusion (from UniProt Q02297 146-244) (ligand),565,975,
Trx-HRG-β1 146-244 P205A fusion (from UniProt Q02297 146-244) (ligand),34.2,39.5,
Trx-HRG-β1 146-244 G193A fusion (from UniProt Q02297 146-244) (ligand),76.3,26.9,
"HRG-β1 177-244 H178L with 228-231 replaced by Met, displayed on phage (Example 4 clone) (from UniProt Q02297 177-227; Q02297 232-244) (ligand)",,,EC50 Mut/WT [3]: 6.4; EC50 Mut/WT [4]: 1.7
HRG-β1 177-244 R207P displayed on phage (Example 4 clone) (from UniProt Q02297 177-244) (ligand),,,EC50 Mut/WT [3]: 6.1; EC50 Mut/WT [4]: 1.3
Trx-HRG-β1 146-244 Y224A fusion (from UniProt Q02297 146-244) (ligand),24.5,339,
HRG-β1 177-244 H178D L179V displayed on phage (Example 4 clone) (from UniProt Q02297 177-244) (ligand),,,EC50 Mut/WT [3]: 2.2; EC50 Mut/WT [4]: 2
Trx-HRG-β1 146-244 S177A fusion (from UniProt Q02297 146-244) (ligand),54.6,129,
Trx-HRG-β1 146-244 R207A fusion (from UniProt Q02297 146-244) (ligand),24.3,245,
Trx-HRG-β1 146-244 T217A fusion (from UniProt Q02297 146-244) (ligand),32.7,145,

Molecule,EC50 [1] [nM],EC50 [2] [nM],other results
Trx-HRG-β1 146-244 F216A fusion (from UniProt Q02297 146-244) (ligand),173,2550,
Trx-HRG-β1 146-244 H178A fusion (from UniProt Q02297 146-244) (ligand),138,476,
Trx-HRG-β1 146-244 E215A fusion (from UniProt Q02297 146-244) (ligand),104,156,
HRG-β1 177-244 H178L displayed on phage (Example 4 clone) (from UniProt Q02297 177-244) (ligand),,,EC50 Mut/WT [3]: 1.4; EC50 Mut/WT [4]: 1.2
Trx-HRG-β1 146-244 G218A fusion (from UniProt Q02297 146-244) (ligand),608,668,
HRG-β1 177-244 L179V displayed on phage (Example 4 clone) (from UniProt Q02297 177-244) (ligand),,,EC50 Mut/WT [3]: 1.5; EC50 Mut/WT [4]: 1.6
Trx-HRG-β1 146-244 K200A fusion (from UniProt Q02297 146-244) (ligand),16.9,45.4,
B1,,,EC50 (wt)/EC50 (mut) [5]: 28 ratio; EC50 (wt)/EC50 (mut) [6]: 7.6 ratio
B2,,,EC50 (wt)/EC50 (mut) [5]: 56 ratio; EC50 (wt)/EC50 (mut) [6]: 16 ratio
B3,,,EC50 (wt)/EC50 (mut) [5]: 17 ratio
B4,,,EC50 (wt)/EC50 (mut) [5]: 13 ratio
B5,,,EC50 (wt)/EC50 (mut) [5]: 1.2 ratio; EC50 (wt)/EC50 (mut) [6]: 1.6 ratio
B6,,,EC50 (wt)/EC50 (mut) [5]: 0.96 ratio; EC50 (wt)/EC50 (mut) [6]: 1.1 ratio
B7,,,EC50 (wt)/EC50 (mut) [5]: 4.7 ratio; EC50 (wt)/EC50 (mut) [6]: 1.7 ratio
B8,,,EC50 (wt)/EC50 (mut) [5]: 20 ratio; EC50 (wt)/EC50 (mut) [6]: 10 ratio
B9,,,EC50 (wt)/EC50 (mut) [5]: 6.3 ratio
B10,,,EC50 (wt)/EC50 (mut) [5]: 2.9 ratio; EC50 (wt)/EC50 (mut) [6]: 5 ratio
B11,,,EC50 (wt)/EC50 (mut) [5]: 13 ratio
